Assay results as given in US20260034194A1, “PHARMACEUTICAL COMPOSITIONS AND METHODS OF TREATING PSP” (priority 2022, published 2026).
Entries after “also recorded” stand apart in the source; their conditions may differ.

Type: binding
Details: for Kd: 1 nM F-STX, 25° C., errors S.D.; for ΔΔG: ΔΔG = RT ln(Kd mutant or XSxph/Kd RcSxph), T = 298K, FP with F-STX

B1: K789A: RcSxph STX binding pocket mutant K789A (protein)
chain: MAPTFQTALFFTIISLSFAAPNAKQVRWCAISDLEQKKCNDLVGSCNVPDITLVCVLRSSTEDCMTAIKDGQADAMFLDSGEVYEASKDPYNLKPIIAEPYSSNRDLQKCLKERQQALAKKMIGHYIPQCDEKGNYQPQQCHGSTGHCWCVNAMGEKISGTNTPPGQTRATCERHELPKCLKERQVALGGDEKVLGRFVPQCDEKGNYEPQQFHGSTGYSWCVNAIGEEIAGTKTPPGKIPATCQKHDLVTTCHYAVAMVKKSSAFQFNQLKGKRSCHSGVSKTDGWKALVTVLVEKKLLSWDGPAKESIQRAMSKFFSVSCIPGATQTNLCKQCKGEEGKNCKNSHDEPYYGNYGAFRCLKEDMGDVAFLRSTALSDEHSEVYELLCPDNTRKPLNKYKECNLGTVPAGTVVTRKISDKTEDINNFLMEAQKRQCKLFSSAHGKDLMFDDSTLQLALLSSEVDAFLYLGVKLFHAMKALTGDAHLPSKNKVRWCTINKLEKMKCDDWSAVSGGAIACTEASCPKGCVKQILKGEADAVKLEVQYMYEALMCGLLPAVEEYHNKDDFGPCKTPGSPYTDFGTLRAVALVKKSNKDINWNNIKGKKSCHTGVGDIAGWVIPVSLIRRQNDNSDIDSFFGESCAPGSDTKSNLCKLCIGDPKNSAANTKCSLSDKEAYYGNQGAFRCLVEKGDVAFVPHTVVFENTDGKNPAVWAKNLKSEDFELLCLDGSRAPVSNYKSCKLSGIPPPAIVTREESISDVVRIVANQQSLYGRKGFEKDMFQLFSSNKGNNLLFNDNTQCLITFDRQPADIMEDYFGKPYYTTVYGASRSAMSSELISACTIKHC
Kd (FP): 5.1 ± 1.7 nM
ΔΔG: -0.22 kcal/mol

B2: Y795A: RcSxph STX binding pocket mutant Y795A (protein)
chain: MAPTFQTALFFTIISLSFAAPNAKQVRWCAISDLEQKKCNDLVGSCNVPDITLVCVLRSSTEDCMTAIKDGQADAMFLDSGEVYEASKDPYNLKPIIAEPYSSNRDLQKCLKERQQALAKKMIGHYIPQCDEKGNYQPQQCHGSTGHCWCVNAMGEKISGTNTPPGQTRATCERHELPKCLKERQVALGGDEKVLGRFVPQCDEKGNYEPQQFHGSTGYSWCVNAIGEEIAGTKTPPGKIPATCQKHDLVTTCHYAVAMVKKSSAFQFNQLKGKRSCHSGVSKTDGWKALVTVLVEKKLLSWDGPAKESIQRAMSKFFSVSCIPGATQTNLCKQCKGEEGKNCKNSHDEPYYGNYGAFRCLKEDMGDVAFLRSTALSDEHSEVYELLCPDNTRKPLNKYKECNLGTVPAGTVVTRKISDKTEDINNFLMEAQKRQCKLFSSAHGKDLMFDDSTLQLALLSSEVDAFLYLGVKLFHAMKALTGDAHLPSKNKVRWCTINKLEKMKCDDWSAVSGGAIACTEASCPKGCVKQILKGEADAVKLEVQYMYEALMCGLLPAVEEYHNKDDFGPCKTPGSPYTDFGTLRAVALVKKSNKDINWNNIKGKKSCHTGVGDIAGWVIPVSLIRRQNDNSDIDSFFGESCAPGSDTKSNLCKLCIGDPKNSAANTKCSLSDKEAYYGNQGAFRCLVEKGDVAFVPHTVVFENTDGKNPAVWAKNLKSEDFELLCLDGSRAPVSNYKSCKLSGIPPPAIVTREESISDVVRIVANQQSLYGRKGFEKDMFQLFSSNKGNNLLFNDNTQCLITFDRQPKDIMEDAFGKPYYTTVYGASRSAMSSELISACTIKHC
Kd (FP): 8.4 ± 2.1 nM
ΔΔG: 0.08 kcal/mol

B3: T563A: RcSxph STX binding pocket mutant T563A (protein)
chain: MAPTFQTALFFTIISLSFAAPNAKQVRWCAISDLEQKKCNDLVGSCNVPDITLVCVLRSSTEDCMTAIKDGQADAMFLDSGEVYEASKDPYNLKPIIAEPYSSNRDLQKCLKERQQALAKKMIGHYIPQCDEKGNYQPQQCHGSTGHCWCVNAMGEKISGTNTPPGQTRATCERHELPKCLKERQVALGGDEKVLGRFVPQCDEKGNYEPQQFHGSTGYSWCVNAIGEEIAGTKTPPGKIPATCQKHDLVTTCHYAVAMVKKSSAFQFNQLKGKRSCHSGVSKTDGWKALVTVLVEKKLLSWDGPAKESIQRAMSKFFSVSCIPGATQTNLCKQCKGEEGKNCKNSHDEPYYGNYGAFRCLKEDMGDVAFLRSTALSDEHSEVYELLCPDNTRKPLNKYKECNLGTVPAGTVVTRKISDKTEDINNFLMEAQKRQCKLFSSAHGKDLMFDDSTLQLALLSSEVDAFLYLGVKLFHAMKALTGDAHLPSKNKVRWCTINKLEKMKCDDWSAVSGGAIACTEASCPKGCVKQILKGEADAVKLEVQYMYEALMCGLLPAVEEYHNKDDFGPCKTPGSPYTDFGALRAVALVKKSNKDINWNNIKGKKSCHTGVGDIAGWVIPVSLIRRQNDNSDIDSFFGESCAPGSDTKSNLCKLCIGDPKNSAANTKCSLSDKEAYYGNQGAFRCLVEKGDVAFVPHTVVFENTDGKNPAVWAKNLKSEDFELLCLDGSRAPVSNYKSCKLSGIPPPAIVTREESISDVVRIVANQQSLYGRKGFEKDMFQLFSSNKGNNLLFNDNTQCLITFDRQPKDIMEDYFGKPYYTTVYGASRSAMSSELISACTIKHC
Kd (FP): 5.3 ± 0.5 nM
ΔΔG: -0.20 kcal/mol

B4: RiSxph: Ranitomeya imitator (Mimic poison frog) saxiphilin, SEQ ID NO: 6 (protein)
chain: MRRSSYAASQEMRMTLRVLLCLCLWALSSAAPNTRNVRWCVTSDTEEQKCNDLVTSCHVDEILLICVKKSSTEDCVRAISNGEADAISLDSKDVYKASLDPFNLKPIMTEAYSESEHTPCMRHRQSVLGGKIMKIGAFVPKCDEKGNYVPKQCHGSTGYCWCLNENGEEIEGTRTPPGNPGLTCENKANKPPCLKERQKLLSAKPSPAVFVPECDEKGNYRPQQSHVYSWCVDEYGEEVFGSRSFPGKPPKPCEASGETPCIKERNKVLSAAEPLLGAFVPDCDEKGYFSPLQSHGSTGYSWCVTKNGDEIKGTRTGPGQSPPTCEVPAPVTLHYAVAVVKKSSSFHLDQLKGKRSCHSAVGEAAGWVAPLNVLLKKKLLLWEEPEPKTIEKVASEIFSASCAPGAQEANLCEQCAGQEDKCTRGPGEPYYGDEGAFRCLREDKGDVAFVEDTALTGQYSDNFELLCPDNTRRPLSQYKICNFGRIPRHAVVTRSSGDKMKDITEYLLQAQKKECKLFSSTHGKDLLFEDTTSALIALPSAMDTFLFLGPDLFNGMKTLNGARPPQVNQQIRWCPQSKNEKKKCDDWSSVSGGAIKCTEPSSGLECIKMILKGEAEAVNLDIEHSYIALKCGLLPSVDEYRNKDDLIPCQIPGSEYSEFGSYRIVALVKKTDKDLTWNNLQGKKSCHTRAGDMIGWNIPVYLISKKTKNCDLGSYFSQSCAPGSPIDSNLCKLCIGDPQNPQANTKCSISDKEAYYGHEGAIRCLVEKGDVAFVPHTAIFENTDGKNPALWAKDLKSTDFELLCPDGSRAPVNDYKKCKLSGIANQIAITRPESVKDVVRIIQNQQSLYGRTGSQKDIFQMFSSSYGQNLLFSDRTQCLVEFDRMLDRDIMDDYFGKPFHKHLLRDNDCLPKSALASACSFHH
modifications: Ranitomeya imitator
STX/F-STX affinity compared with RcSxph (FP): higher affinity for STX than RcSxph; also recorded: binds STX more strongly than RcSxph
Kd (FP): 0.8 ± 0.3 nM
ΔΔG: -1.32 kcal/mol
